The text below walks through data of the Immune Epitope Database (IEDB).

Test [1] deals with HLA-A*01:01. The test is described as follows: IEDB peptide-MHC binding, purified MHC/competitive/fluorescence; ≥ and ≤ were set here for values at or beyond the usual limits of such assays.
The target in test [2] is HLA-A*03:01. Described as above.
The target of test [3] is HLA-A*11:01. The test is described as above.
In test [4] the target is HLA-B*15:01. Described as above.
Test [5] deals with HLA-A*01:01. The test is described as follows: IEDB peptide-MHC binding, purified MHC/direct/fluorescence; filed as Kd, often an IC50 or EC50 that approximates it; ≥ and ≤ were set here for values at or beyond the usual limits of such assays.
In test [6] the target is HLA-A*02:01. Described as above. Conditions: source organism: Influenza A virus (A/turkey/Minnesota/511/1978(H9N2)).
The target of test [7] is HLA-A*03:01. Described as above.
The target in test [8] is HLA-A*11:01. The description is as above. As to conditions: source organism: Influenza A virus (A/turkey/Minnesota/511/1978(H9N2)).
Test [9] deals with HLA-A*24:02. Described as above.
Test [10] concerns the target HLA-A*26:01. Described as above. As to conditions: source organism: Influenza A virus (A/shorebird/Delaware/141/2002(H9N9)).
A further test has as its target HLA-A*31:01. The test is described as above. As to conditions: source organism: Influenza A virus (A/turkey/Minnesota/511/1978(H9N2)).
In test [11] the target is HLA-A*69:01. The test is described as above.
In test [12] the target is HLA-B*07:02. The test is described as above.
The target in a further test is HLA-B*08:01. The description is as above.
In test [13] the target is HLA-B*15:01. The description is as above.
The target of the next test is HLA-B*27:05. The description is as above.
The target of another test is HLA-B*40:01. The description is as above. As to conditions: source organism: Influenza A virus (A/turkey/Minnesota/511/1978(H9N2)).
The target of the next test is HLA-B*44:02. The test is described as above.
Another test deals with HLA-B*58:01. The test is described as above.
Test [14] concerns the target HLA-A*02:01. The experiment in a line: IEDB peptide-MHC binding, purified MHC/competitive/fluorescence; ≥ and ≤ were set here for values at or beyond the usual limits of such assays.
In test [15] the target is HLA-A*24:02. The test is described as above. As to conditions: source organism: Zaire ebolavirus.
Another test deals with HLA-B*08:02. The test is described as follows: IEDB peptide-MHC binding, purified MHC/direct/fluorescence; filed as Kd, often an IC50 or EC50 that approximates it; ≥ and ≤ were set here for values at or beyond the usual limits of such assays. As to conditions: source organism: Influenza A virus(A/swine/Shandong/fNY/2003(H9N2)).
In test [16] the target is HLA-B*46:01. The test is described as above. Conditions: source organism: Influenza A virus (A/egret/Hong Kong/757.3/2002(H5N1)).
Test [17] deals with HLA-B*07:02. The test is described as follows: IEDB peptide-MHC binding, purified MHC/competitive/fluorescence; ≥ and ≤ were set here for values at or beyond the usual limits of such assays.
In another test the target is HLA-A*02:03. The test is described as follows: IEDB peptide-MHC binding, purified MHC/direct/fluorescence; filed as Kd, often an IC50 or EC50 that approximates it; ≥ and ≤ were set here for values at or beyond the usual limits of such assays. As to conditions: source organism: Zaire ebolavirus.
In the next test the target is HLA-A*02:11. The description is as above. Conditions: source organism: Zaire ebolavirus.
The target in another test is HLA-A*02:12. Described as above. Conditions: source organism: Zaire ebolavirus.
The target in a further test is HLA-A*02:16. The description is as above. Conditions: source organism: Zaire ebolavirus.
The target in a further test is HLA-A*02:19. The description is as above. As to conditions: source organism: Zaire ebolavirus.
A further test has as its target HLA-A*24:03. Described as above. As to conditions: source organism: Zaire ebolavirus.
A further test addresses HLA-A*68:02. The description is as above. As to conditions: source organism: Zaire ebolavirus.
Test [18] concerns the target HLA-A*02:01. The experiment in a line: IEDB peptide-MHC binding, purified MHC/competitive/fluorescence; filed as Kd, often an IC50 or EC50 that approximates it; ≥ and ≤ were set here for values at or beyond the usual limits of such assays. Conditions: source organism: Zaire ebolavirus.
Test [19] deals with HLA-A*26:01. Described as above. Conditions: source organism: Zaire ebolavirus.
The target of test [20] is HLA-A*69:01. The test is described as above. As to conditions: source organism: Zaire ebolavirus.
A further test addresses HLA-B*15:17. The test is described as above. Conditions: source organism: Zaire ebolavirus.
Another test deals with HLA-B*18:01. The test is described as above. Conditions: source organism: Zaire ebolavirus.
Another test addresses HLA-B*27:03. Described as above. Conditions: source organism: Zaire ebolavirus.
In another test the target is HLA-B*39:01. The description is as above. Conditions: source organism: Zaire ebolavirus.
The target of test [21] is HLA-B*46:01. Described as above. Conditions: source organism: Zaire ebolavirus.
The target in another test is HLA-B*51:01. The test is described as above. As to conditions: source organism: Zaire ebolavirus.
A further test concerns the target HLA-B*57:01. Described as above. As to conditions: source organism: Zaire ebolavirus.
The mark [22] stands for this setting: source organism: Sudan ebolavirus.
The mark [23] stands for this setting: source organism: Influenza A virus (A/turkey/Minnesota/511/1978(H9N2)).
Setting [24] is: source organism: Influenza A virus (A/Puerto Rico/8/34/Mount Sinai(H1N1)).
[25] abbreviates: source organism: Zaire ebolavirus.
Where [26] appears, read: source organism: Influenza A virus (A/egret/Hong Kong/757.3/2002(H5N1)).
Setting [27] is: source organism: Vaccinia virus Copenhagen.

With ISDRATRKY, the IC50 with HLA-A*01:01 [1] (setting [22]) came out at 1.89 µM; with HLA-A*03:01 [2] (setting [22]), 38.6 µM; with HLA-A*11:01 [3] (setting [22]), 18.8 µM; with HLA-B*15:01 [4] (setting [22]), 57.6 µM.

For the sequence DLLENLQAY, the Kd with HLA-A*01:01 [5] (setting [23]) was at least 20 µM; with HLA-A*02:01 [6], at least 20 µM; in the test with HLA-A*03:01 [7] (setting [23]), at least 20 µM; with HLA-A*11:01 [8] it was at least 20 µM; with HLA-A*24:02 [9] (setting [23]), at least 20 µM; in the test with HLA-A*26:01 [10] it was 0.115 µM. Also, the Kd was at least 20 µM with HLA-A*31:01; at least 20 µM with HLA-A*69:01 [11] (setting [23]); at least 20 µM in the test with HLA-B*07:02 [12] (setting [23]); at least 20 µM with HLA-B*08:01 (setting [23]); 2.69 µM with HLA-B*15:01 [13] (setting [24]); at least 20 µM with HLA-B*27:05 (setting [23]). Besides, the Kd in the test with HLA-B*40:01, in the test with HLA-B*44:02 (setting [23]) and in the test with HLA-B*58:01 (setting [23]) was at least 20 µM each time.

In the case of VIFRLMRTN, the IC50 with HLA-A*02:01 [14] (setting [25]) was 42.7 µM; in the test with HLA-A*03:01 [2] (setting [25]), 7.47 µM; in the test with HLA-A*11:01 [3] (setting [25]), at least 90.6 µM; with HLA-A*24:02 [15], at least 150 µM; with HLA-B*15:01 [4] (setting [25]), at least 175 µM.

As to EEFTMVGRR, the Kd with HLA-A*01:01 [5] (setting [26]) is at least 20 µM; with HLA-A*03:01 [7] (setting [24]) it was 1.01 µM; with HLA-A*24:02 [9] (setting [26]) it was at least 20 µM; with HLA-A*69:01 [11] (setting [26]), at least 20 µM; with HLA-B*07:02 [12] (setting [26]) it was at least 20 µM; in the test with HLA-B*08:01 (setting [26]), at least 20 µM. The Kd with HLA-B*08:02, with HLA-B*15:01 [13] (setting [26]), with HLA-B*27:05 (setting [26]), in the test with HLA-B*44:02 (setting [26]), in the test with HLA-B*46:01 [16] and with HLA-B*58:01 (setting [26]) was at least 20 µM in each case.

The sequence GQHIEGRQT returned an IC50 in the test with HLA-B*15:01 [4] (setting [25]) of at least 148 µM.

Regarding RSRRQTNTK, the results for the IC50 with HLA-A*03:01 [2] (setting [22]), with HLA-A*11:01 [3] (setting [22]) and with HLA-B*07:02 [17] (setting [22]) were 2.27 µM, 1.47 µM and 8.84 µM, respectively.

Take VTLDGQQFY: the IC50 was 3.88 µM in the test with HLA-A*01:01 [1] (setting [25]); at least 226 µM with HLA-A*02:01 [14] (setting [25]); at least 105 µM with HLA-A*03:01 [2] (setting [25]); 4.92 µM with HLA-A*11:01 [3] (setting [25]); at least 192 µM with HLA-A*24:02 [15]; 53.6 µM with HLA-B*15:01 [4] (setting [25]).

In the case of WPVMNHKNK, the figures for the IC50 with HLA-A*03:01 [2] (setting [25]), with HLA-A*11:01 [3] (setting [25]) and with HLA-B*07:02 [17] (setting [25]) were at least 180 µM, at least 185 µM and 53.1 µM, respectively.

As for STSPRMLTP, the figures for the IC50 in the test with HLA-A*11:01 [3] (setting [25]), in the test with HLA-A*24:02 [15] and with HLA-B*07:02 [17] (setting [25]) were 44.1 µM, 69.9 µM and at least 168 µM, respectively.

For GLIQYPTAW, the IC50 with HLA-A*02:01 [14] (setting [25]) is 3.1 µM; in the test with HLA-A*24:02 [15] it was 13.2 µM; with HLA-B*15:01 [4] (setting [25]), at least 109 µM. Also, the Kd with HLA-A*02:03, with HLA-A*02:11, with HLA-A*02:12, with HLA-A*02:16, in the test with HLA-A*02:19 and in the test with HLA-A*03:01 [7] (setting [25]) was at least 20 µM throughout. Besides, the Kd in the test with HLA-A*24:03 was at least 20 µM; in the test with HLA-A*68:02, at least 20 µM; with HLA-B*15:01 [13] (setting [25]) it was 2.2 µM; with HLA-B*58:01 (setting [25]), 0.5 µM; with HLA-A*02:01 [18] it was at least 20 µM; with HLA-A*26:01 [19] it was at least 20 µM. The dissociation constant Kd with HLA-A*69:01 [20], with HLA-B*15:17, with HLA-B*18:01, with HLA-B*27:03, in the test with HLA-B*39:01 and with HLA-B*46:01 [21] was at least 20 µM each time. In addition, the Kd with HLA-B*51:01 and in the test with HLA-B*57:01 was at least 20 µM each time.

For AIITPIVFY, the IC50 was at least 122 µM with HLA-A*02:01 [14] (setting [27]), at least 153 µM in the test with HLA-A*03:01 [2] (setting [27]), 0.941 µM with HLA-A*11:01 [3] (setting [27]) and 6.37 µM with HLA-B*15:01 [4] (setting [27]).
